Measurements: US20060233708A1
“And” between values parts separate entries of the source, which are not always exact repeats. Identical values can stand only once. Ends that are not written are not given here.

Experiments:
[1] = target: TGF-β receptors in mink lung epithelial cells
[2] = target: TGF-β receptors in mink lung epithelial cells; assay: competition with 125I-TGF-β1 for binding to mink lung epithelial cells
[3] = target: TGF-β receptors in mink lung epithelial cells; assay: specific binding of 125I-TGF-β1 to mink lung epithelial cells without peptide
[4] = target: TGF-β receptors in mink lung epithelial cells; assay: specific binding of 0.1 nM 125I-TGF-β1 to mink lung epithelial cells
[5] = target: TGF-β receptors in mink lung epithelial cells; assay: competition with 125I-TGF-β1 for binding to mink lung epithelial cells; remark: listed apart in the source
[6] = target: TGF-β receptors in mink lung epithelial cells; assay: specific binding of 125I-TGF-β2 to mink lung epithelial cells without peptide
[7] = target: TGF-β receptors in mink lung epithelial cells; assay: specific binding of 125I-TGF-β3 to mink lung epithelial cells without peptide
[8] = target: TGF-β receptors in mink lung epithelial cells; assay: competition with 125I-TGF-β3 for binding to mink lung epithelial cells
[9] = target: TGF-β receptors in mink lung epithelial cells; assay: competition with 125I-TGF-β2 for binding to mink lung epithelial cells
[10] = target: type V TGF-β receptor (mink); assay: inhibition of 125I-TGF-β1 affinity labeling of receptors on mink lung epithelial cells
[11] = target: type III TGF-β receptor (mink); assay: as above
[12] = target: type I TGF-β receptor (mink); assay: as above
[13] = target: type II TGF-β receptor (mink); assay: as above

peptide β1^25 (41-65)-carbonic anhydrase (CA) conjugate (from UniProt P00915)
ED50 of growth inhibition as measured by DNA synthesis in mink lung epithelial cells [1]: 0.1 µM | IC50 [2]: 0.05 µM | fold lower IC50 than peptide β1^25 (41-65) prior to conjugation [2]: 20 fold

peptide β1^25 (41-65)-bovine serum albumin (BSA) conjugate (from UniProt P02769)
ED50 of growth inhibition as measured by DNA synthesis in mink lung epithelial cells [1]: 0.1 µM | IC50 [2]: 0.06 µM | fold lower IC50 than peptide β1^25 (41-65) prior to conjugation [2]: 20 fold

TGF-β1 (ligand)
specific binding (0% inhibition) [3]: 3930 cpm/well | specific binding without peptides [4]: 3670 cpm/well

PYIWSLDTQY [peptide β1^10 (49-58)]
IC50 [5]: 40 to 70 µM

B1: TGF-β2 (ligand)
chain: ALDAAYCFRNVQDNCCLRPLYIDFKRDLGWKWIHEPKGYNANFCAGACPYLWSSDTQHSRVLSLYNTINPEASASPCCVSQDLEPLTILYYIGKTPKIEQLSNMIVKSCKCS
modifications: ^125I-labelled (iodination with Na^125I)
specific binding (0% inhibition) [6]: 4510 cpm/well

PYLWASDTQH [peptide β2^10 (49-58) S53A]
IC50 [5]: 40 µM

B2: TGF-β3 (ligand)
chain: ALDTNYCFRNLEENCCVRPLYIDFRQDLGWKWVHEPKGYYANFCSGPCPYLRSADTTHSTVLGLYNTLNPEASASPCCVPQDLEPLTILYYVGRTPKVEQLSNMVVKSCKCS
modifications: ^125I-labelled (iodination with Na^125I)
specific binding (0% inhibition) [7]: 4220 cpm/well

PYLWSSDTQH [peptide β2^10 (49-58)]
IC50 [5]: 40 to 70 µM

ANFCSGPCPYLRSADTTHSTVLGLY (not fully specified; cysteine pairing not given here) [peptide β3^25 (41-65)]
IC50 [5]: 20 µM | IC50 [8]: 0.06 to 0.08 µM | IC50 [9]: 20 µM

ANFCAGACPYLWSSDTQHSRVLSLY (not fully specified; cysteine pairing not given here) [peptide β2^25 (41-65)]
IC50 [5]: 1 µM and 2 µM | IC50 [8]: 0.08 µM | IC50 [9]: 1 µM and 2 µM

ANFCLGPCPYIWSLDTQYSKVLALY (not fully specified; cysteine pairing not given here) [peptide β1^25 (41-65)]
IC50 [5]: 1 µM and 2 µM | concentration of complete inhibition of ^125I-TGF-β1 binding [5]: 34 µM | concentration at which ^125I-TGF-β1-affinity labeling was almost completely abolished [10]: 2.3 µM | percent inhibition of ^125I-TGF-β1-affinity labeling at 2.3 µM [11]: 30 to 40% | percent inhibition of ^125I-TGF-β1-affinity labeling at 2.3 µM [12]: 30 to 40% | percent inhibition of ^125I-TGF-β1-affinity labeling at 2.3 µM [13]: 30 to 40% | IC50 [8]: 0.06 to 0.08 µM | IC50 [9]: 1 µM and 2 µM
